Here are results for one molecule from patent US20240158512A1 (TRUEBINDING, published 2024).

What is called IC50 is the point on the concentration scale where inhibition reaches its midpoint. A higher IC50 goes with a need for much substance. In general, Kd refers to the constant that tells how readily two partners part at equilibrium.

For experiment [1], the target named is T1, Galectin-3 (UniProt P17931 1-250, limits assumed).
T1 construct: also called Gal3; GAL3
As to the kind of experiment: ELISA biological activity (blocking ELISA, blocked partner not named); DP stored at 5° C. for 6 months. On the technique in general: An ELISA detects its analyte on a solid surface through an enzyme-linked reagent.

The target in experiment [2] is T1, Galectin-3. As to the kind of experiment: ELISA biological activity (blocking ELISA, blocked partner not named); DP stored at 5° C. for 1 month.
For experiment [3], the target named is T1, Galectin-3. As to the kind of experiment: BLI binding activity; DP stored at 25° C. for 3 months.
Experiment [4] addresses T1, Galectin-3. As to the kind of experiment: BLI binding activity; DP stored at 5° C. for 18 months. On the technique in general: BLI is a label-free optical method that tracks binding on a fibre tip over time.
The target of experiment [5] is T1, Galectin-3. The experiment is described as follows: ELISA biological activity (blocking ELISA, blocked partner not named); DP stored at 25° C. for 1 month.
For experiment [6], the target named is T1, Galectin-3. As to the kind of experiment: BLI binding activity; DP stored at 5° C. for 6 months.
The target in experiment [7] is T1, Galectin-3. The experiment is described as follows: ELISA biological activity (blocking ELISA, blocked partner not named); DP stored at 5° C. for 12 months.
The target of experiment [8] is T1, Galectin-3. The experiment is described as follows: BLI binding activity; DP stored at 5° C. for 1 month.
In experiment [9] the target is T1, Galectin-3. The experiment is described as follows: ELISA biological activity (blocking ELISA, blocked partner not named); DP stored at 5° C. for 18 months.
The target in experiment [10] is T1, Galectin-3. The experiment is described as follows: BLI binding activity; DP stored at 25° C. for 1 month.
Experiment [11] addresses T1, Galectin-3. As to the kind of experiment: ELISA biological activity (blocking ELISA, blocked partner not named); 20 mg/mL DP, time 0; Time 0 (control), 20 mg/mL DP.
Experiment [12] concerns the target T1, Galectin-3. As to the kind of experiment: ELISA biological activity (blocking ELISA, blocked partner not named); DP stored at 5° C. for 3 months.
The target of experiment [13] is T1, Galectin-3. The experiment is described as follows: ELISA biological activity (blocking ELISA, blocked partner not named); DP stored at 5° C. for 9 months.
Experiment [14] concerns the target T1, Galectin-3. As to the kind of experiment: ELISA biological activity (blocking ELISA, blocked partner not named); DP stored at 25° C. for 6 months.
The target of experiment [15] is T1, Galectin-3. The experiment is described as follows: BLI binding activity; DP stored at 5° C. for 3 months.
Experiment [16] deals with T1, Galectin-3. As to the kind of experiment: BLI binding activity; DP stored at 5° C. for 12 months.
Experiment [17] concerns the target T1, Galectin-3. As to the kind of experiment: ELISA biological activity (blocking ELISA, blocked partner not named); DP stored at 25° C. for 3 months.
Experiment [18] addresses T1, Galectin-3. As to the kind of experiment: BLI binding activity; DP stored at 5° C. for 9 months.
The target of experiment [19] is T1, Galectin-3. The experiment is described as follows: BLI binding activity; DP stored at 25° C. for 6 months.

T1 sequence (P17931 whole entry): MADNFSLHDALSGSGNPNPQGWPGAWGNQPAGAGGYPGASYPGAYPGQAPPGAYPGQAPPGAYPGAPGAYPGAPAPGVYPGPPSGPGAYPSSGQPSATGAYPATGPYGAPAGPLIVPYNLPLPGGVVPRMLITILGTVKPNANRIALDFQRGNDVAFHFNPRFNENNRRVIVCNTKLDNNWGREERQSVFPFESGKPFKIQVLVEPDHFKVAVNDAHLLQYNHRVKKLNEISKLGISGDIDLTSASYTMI

B1: TB006 (antibody, human IgG4 S228P, kappa, V domains shown)
VH: QVQLVQSGAEVKKPGASVKVSCKASGYSFTNYYMHWVRQAPGQRLEWMGWIYPGSGNTNYNEKFQGRVTITADTSASTAYMELSSLRSEDTAVYYCSTAPGGFDVWGQGTTVTVSS
VL: DIVMTQTPLSLSVTPGQPASISCKSSKSLLHSDGITYLYWYLQKPGQSPQLLIYRMSNLASGVPDRFSGSGSGTDFTLKISRVEAEDVGVYYCAQMLEFPLTFGQGTKLEIKR
notes: Tested as drug product at 20 mg/mL in 20 mM L-histidine, 5 mM methionine, 100 mM NaCl, 0.02% polysorbate-80, pH 5.8; also called 4A11.H3L1; IMT006a
Regarding B1, the IC50 in the experiment with Galectin-3 [1] turned out to be 1.5 µg/mL; in the experiment with Galectin-3 [2], 1.8 µg/mL; in the experiment with Galectin-3 [5], 1.8 µg/mL; in the experiment with Galectin-3 [7] it was 1.5 µg/mL; with Galectin-3 [9] it was 1.8 µg/mL; in the experiment with Galectin-3 [11], 2.5 µg/mL. The IC50 came to 1.5 µg/mL with Galectin-3 [12], 1.2 µg/mL in the experiment with Galectin-3 [13], 1.5 µg/mL with Galectin-3 [14] and 1.5 µg/mL with Galectin-3 [17]. For the same molecule, the Kd was determined as 3.1 nM in the experiment with Galectin-3 [3]; 2 nM with Galectin-3 [4]; 3.5 nM in the experiment with Galectin-3 [6]; 2.5 nM with Galectin-3 [8]; 2.5 nM with Galectin-3 [10]; 3 nM with Galectin-3 [15]. Further, the Kd was 3.1 nM with Galectin-3 [16], 2.5 nM with Galectin-3 [18] and 3.7 nM in the experiment with Galectin-3 [19].
